The values below come from publication PMC10514999, “The PyPIF5-PymiR156a-PySPL9-PyMYB114/MYB10 module regulates light-induced anthocyanin biosynthesis in red pear”.

The target in data set [1] is T1, PyPIF5 (Pyrus (red pear; cultivar of the cloned …, UniProt A0A5N5GDZ9 1-552).
T1 sequence: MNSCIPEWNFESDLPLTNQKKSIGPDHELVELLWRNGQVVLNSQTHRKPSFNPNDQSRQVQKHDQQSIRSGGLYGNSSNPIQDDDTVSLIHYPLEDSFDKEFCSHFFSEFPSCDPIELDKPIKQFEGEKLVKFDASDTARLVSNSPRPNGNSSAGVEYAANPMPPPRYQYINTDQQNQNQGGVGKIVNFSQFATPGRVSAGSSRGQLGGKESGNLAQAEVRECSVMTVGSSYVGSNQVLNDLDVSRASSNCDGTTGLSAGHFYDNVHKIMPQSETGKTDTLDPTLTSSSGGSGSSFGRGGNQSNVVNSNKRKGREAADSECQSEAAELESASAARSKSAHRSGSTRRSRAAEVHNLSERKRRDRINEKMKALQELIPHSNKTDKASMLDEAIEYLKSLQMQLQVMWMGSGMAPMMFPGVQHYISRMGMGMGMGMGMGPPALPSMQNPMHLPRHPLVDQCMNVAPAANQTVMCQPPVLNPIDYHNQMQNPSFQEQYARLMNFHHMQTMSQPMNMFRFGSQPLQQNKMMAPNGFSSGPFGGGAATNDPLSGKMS
The data set can be described thus: competition; unlabeled competitor of N1; binding gradually reduced; EMSA: 500 ng PyPIF5-His, 20 nM biotin probe, 20 uL with 4 uL 5x EMSA/Gel-Shift buffer (Beyotime GS009), 20 min, room temperature (~25 C); salt and pH not stated. The note with it: protein: recombinant; tags: His (pColdTF vector); chain copies: 2; as N1, 37/36 nt as printed. In general terms: A gel shift assay detects complexes by their altered migration in electrophoresis.

In data set [2] the target is T1, PyPIF5. The experiment in a line: EMSA; mutant probe, G-box destroyed; Methods also describe it as a competitor; EMSA: 500 ng PyPIF5-His, 20 nM biotin probe, 20 uL with 4 uL 5x EMSA/Gel-Shift buffer (Beyotime GS009), 20 min, room temperature (~25 C); salt and pH not stated. The note with it: protein: recombinant; tags: His (pColdTF vector); chain copies: 2; label: biotin; blunt.

Residue numbers refer to the chain shown, from its start.

B1: Cold-probe (dsDNA)
DNA 1: TTGTAAAGAACACGTACGTTACACGTACGCTGAAACA
DNA 2: TGTTTCAGCGTAGTGTAACGTACGTGTTCTTTACAA
Take B1: the binding result in data set [1] is “binds”.

B2: Bio-Mut-probe (dsDNA)
DNA 1: TTGTAAAGAACAGATACGTTACACTACGCTGAAACA
DNA 2: B1 DNA 2 with C23T, G24C
For the molecule B2, the binding result in data set [2] is recorded as “no binding”.
